9 molecules from patent US20240270821A1, “GIP/GLP1/GCG TRI-RECEPTOR AGONISTS AND USES THEREOF” (priority 2023, published 2024) can be followed below.

Substitutions are numbered along the chain they refer to.

Sequences and labels used below:
T1: human GIP receptor (human) (UniProt P48546)
T1 sequence (looked up): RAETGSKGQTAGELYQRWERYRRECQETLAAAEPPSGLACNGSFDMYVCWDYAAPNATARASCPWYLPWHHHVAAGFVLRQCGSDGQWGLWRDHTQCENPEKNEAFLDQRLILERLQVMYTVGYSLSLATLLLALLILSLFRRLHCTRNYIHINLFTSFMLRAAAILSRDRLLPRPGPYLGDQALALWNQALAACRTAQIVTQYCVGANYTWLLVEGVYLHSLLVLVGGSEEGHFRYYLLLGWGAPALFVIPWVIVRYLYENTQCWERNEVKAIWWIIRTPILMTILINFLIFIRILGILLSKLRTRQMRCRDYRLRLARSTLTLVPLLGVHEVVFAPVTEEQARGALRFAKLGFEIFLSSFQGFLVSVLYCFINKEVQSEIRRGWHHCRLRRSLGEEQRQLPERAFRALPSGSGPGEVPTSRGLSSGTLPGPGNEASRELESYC

B1: Example 173 (peptide)
chain: YXQGTFTSDFSXXLDKKAQXAFIEWLLEGGSSSGAPPPSGS
modifications: non-natural residues; lipidated Lys AEEA-γGlu-C18 diacid; C-term amide; synthetic construct; SITE 2: note = 2-Aminoisobutyric Acid; SITE 12: note = L-ornithine; SITE 13: note = alpha-methyl-leucine; SITE 17: note = Lysine is chemically modified through conjugation of the epsilon-amino group of the Lysine side chain with (2-[2-(2-Amino-ethoxy)-ethoxy]-acetyl)-(gamma-Glu)
B2: Example 174 (peptide)
chain: B1 chain with S41T
modifications: non-natural residues, acylated Lys, C-terminal amide; synthetic construct; SITE 2: note = 2-Aminoisobutyric Acid; SITE 12: note = L-ornithine; SITE 13: note = alpha-methyl-leucine; SITE 17: note = Lysine is chemically modified through conjugation of the epsilon-amino group of the Lysine side chain with (2-[2-(2-Amino-ethoxy)-ethoxy]-acetyl)-(gamma-Glu)
B3: Example 183 (peptide)
chain: B1 chain with W25Y, G29X, S31X
modifications: Aib, Orn, αMeL, 4Pal, acylated K, C-terminal amide; synthetic construct; SITE 2: note = 2-Aminoisobutyric Acid; SITE 12: note = L-ornithine; SITE 13: note = alpha-methyl-leucine; SITE 17: note = Lysine is chemically modified through conjugation of the epsilon-amino group of the Lysine side chain with (2-[2-(2-Amino-ethoxy)-ethoxy]-acetyl)2-(gamma-Glu)
B4: Example 168 (peptide)
chain: B1 chain with S31P
modifications: Aib, Orn, αMeL; acylated K; C-terminal amide; synthetic construct; SITE 2: note = 2-Aminoisobutyric Acid; SITE 12: note = L-ornithine; SITE 13: note = alpha-methyl-leucine; SITE 17: note = Lysine is chemically modified through conjugation of the epsilon-amino group of the Lysine side chain with (2-[2-(2-Amino-ethoxy)-ethoxy]-acetyl)-(gamma-Glu)
B5: Example 176 (peptide)
chain: B1 chain with S31T
modifications: Aib, Orn, αMeL; AEEA-γGlu-C18 diacid Lys; C-term amide; synthetic construct; SITE 2: note = 2-Aminoisobutyric Acid; SITE 12: note = L-ornithine; SITE 13: note = alpha-methyl-leucine; SITE 17: note = Lysine is chemically modified through conjugation of the epsilon-amino group of the Lysine side chain with (2-[2-(2-Amino-ethoxy)-ethoxy]-acetyl)-(gamma-Glu)
B6: Example 167 (peptide)
chain: B1 chain with W25Y, G29X, S31P, A35E, S41T
modifications: non-natural residues (Aib, Orn, αMeL); lipidated K; C-terminal amide; synthetic construct; SITE 2: note = 2-Aminoisobutyric Acid; SITE 12: note = L-ornithine; SITE 13: note = alpha-methyl-leucine; SITE 17: note = Lysine is chemically modified through conjugation of the epsilon-amino group of the Lysine side chain with (2-[2-(2-Amino-ethoxy)-ethoxy]-acetyl)2-(gamma-Glu)
B7: Example 169 (peptide)
chain: B1 chain with S31H, S41E
modifications: acylated Lys, C-terminal amide, non-natural residues; synthetic construct; SITE 2: note = 2-Aminoisobutyric Acid; SITE 12: note = L-ornithine; SITE 13: note = alpha-methyl-leucine; SITE 17: note = Lysine is chemically modified through conjugation of the epsilon-amino group of the Lysine side chain with (2-[2-(2-Amino-ethoxy)-ethoxy]-acetyl)2-(gamma-Glu)
B8: Example 181 (peptide)
chain: B1 chain with W25Y, G29X, S31H
modifications: (AEEA)2-γGlu-C18 diacid on Lys; non-natural residues; amide; synthetic construct; SITE 2: note = 2-Aminoisobutyric Acid; SITE 12: note = L-ornithine; SITE 13: note = alpha-methyl-leucine; SITE 17: note = Lysine is chemically modified through conjugation of the epsilon-amino group of the Lysine side chain with (2-[2-(2-Amino-ethoxy)-ethoxy]-acetyl)2-(gamma-Glu)
B9: Example 187 (peptide)
chain: YXQGTFTSDXSRXLDKKAQXAFIEYLIEXGESSGAPPPSGS
modifications: Aib, 4Pal, αMeL; lipidated Lys; C-terminal amide; synthetic construct; SITE 2: note = 2-Aminoisobutyric Acid; SITE 10: note = 3-(4-Pyridyl)-L-alanine; SITE 13: note = alpha-methyl-leucine; SITE 17: note = Lysine is chemically modified through conjugation of the epsilon-amino group of the Lysine side chain with (2-[2-(2-Amino-ethoxy)-ethoxy]-acetyl)

Chain of human GLP-1R (SNAP-GLP-1R expressed in HEK293 cells) (human) (P43220 24-463): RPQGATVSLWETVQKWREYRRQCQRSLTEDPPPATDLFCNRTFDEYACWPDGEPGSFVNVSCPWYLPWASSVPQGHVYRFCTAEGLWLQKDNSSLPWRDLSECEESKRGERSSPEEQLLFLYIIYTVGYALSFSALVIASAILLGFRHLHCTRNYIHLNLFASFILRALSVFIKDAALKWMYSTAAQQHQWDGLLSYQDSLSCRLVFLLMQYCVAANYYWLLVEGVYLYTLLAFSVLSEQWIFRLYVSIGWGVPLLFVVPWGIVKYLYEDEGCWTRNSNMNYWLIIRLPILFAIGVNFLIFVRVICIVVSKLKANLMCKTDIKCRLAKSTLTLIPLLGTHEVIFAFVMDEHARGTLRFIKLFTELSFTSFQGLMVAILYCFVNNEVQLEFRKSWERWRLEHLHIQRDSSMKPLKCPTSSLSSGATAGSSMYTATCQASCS
Chain of human glucagon receptor (human) (P47871 26-477): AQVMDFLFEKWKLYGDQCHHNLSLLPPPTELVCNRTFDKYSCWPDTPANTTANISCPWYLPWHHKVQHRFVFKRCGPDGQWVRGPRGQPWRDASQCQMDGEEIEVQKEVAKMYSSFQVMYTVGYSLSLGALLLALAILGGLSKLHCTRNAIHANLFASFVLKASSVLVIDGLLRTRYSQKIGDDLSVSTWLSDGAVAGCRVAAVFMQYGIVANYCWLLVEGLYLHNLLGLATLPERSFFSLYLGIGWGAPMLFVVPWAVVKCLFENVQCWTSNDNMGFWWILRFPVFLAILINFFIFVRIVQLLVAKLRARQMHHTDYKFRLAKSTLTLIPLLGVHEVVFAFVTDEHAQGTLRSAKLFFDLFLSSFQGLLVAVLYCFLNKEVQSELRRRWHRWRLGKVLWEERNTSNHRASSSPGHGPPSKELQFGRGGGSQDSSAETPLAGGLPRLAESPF

The target of the first assay is hGLP-1R (Homo sapiens, UniProt P43220). Briefly: cell-based or functional assay.
Chain of hGLP-1R (P43220 24-463): as the sequence (P43220 24-463) above
In turn, B1 returned a Relative cAMP EC50, nM (0.1% casein) of 2.32 nM and a cAMP Rel EC50, nM (1% HSA) of 293 nM.

Consider B2, for which the Relative cAMP EC50, nM (0.1% casein) was 2.33 nM and the cAMP Rel EC50, nM (1% HSA) was determined as 208 nM.

Turning to B3, the Relative cAMP EC50, nM (0.1% casein) is 5.03 nM and the cAMP Rel EC50, nM (1% HSA) amounted to 295 nM.

B4 displayed a Relative cAMP EC50, nM (0.1% casein) of 2.44 nM and a cAMP Rel EC50, nM (1% HSA) of 281 nM.

As to B5, the Relative cAMP EC50, nM (0.1% casein) was 2.92 nM and the cAMP Rel EC50, nM (1% HSA) amounted to 389 nM.

In turn, B6 yielded a Relative cAMP EC50, nM (0.1% casein) of 6.19 nM and a cAMP Rel EC50, nM (1% HSA) of 1300 nM.

For B7, the Relative cAMP EC50, nM (0.1% casein) turned out to be 6.17 nM and the cAMP Rel EC50, nM (1% HSA) stood at 216 nM.

Molecule B8 yielded a Relative cAMP EC50, nM (0.1% casein) of 4.39 nM and a cAMP Rel EC50, nM (1% HSA) of 365 nM.

Consider B9, for which the Relative cAMP EC50, nM (0.1% casein) stood at 1.11 nM and the cAMP Rel EC50, nM (1% HSA) was 178 nM.

A further assay has as its target T1, human GIP receptor (human). In words: cell-based or functional assay.
B1 registered a Relative cAMP EC50, nM (0.1% casein) of 0.168 nM and a cAMP Rel EC50, nM (1% HSA) of 49.9 nM.

Regarding B2, the Relative cAMP EC50, nM (0.1% casein) stood at 0.198 nM and the cAMP Rel EC50, nM (1% HSA) amounted to 20.8 nM.

Consider B3, for which the Relative cAMP EC50, nM (0.1% casein) amounted to 0.0759 nM and the cAMP Rel EC50, nM (1% HSA) turned out to be 13.7 nM.

For B4, the Relative cAMP EC50, nM (0.1% casein) came out at 0.233 nM and the cAMP Rel EC50, nM (1% HSA) is 31.9 nM.

Take B5: the Relative cAMP EC50, nM (0.1% casein) stood at 0.212 nM and the cAMP Rel EC50, nM (1% HSA) came out at 40.7 nM.

Turning to B6, the Relative cAMP EC50, nM (0.1% casein) came to 0.101 nM and the cAMP Rel EC50, nM (1% HSA) was determined as 24.7 nM.

With B7, the Relative cAMP EC50, nM (0.1% casein) stood at 0.209 nM and the cAMP Rel EC50, nM (1% HSA) was found to be 21.5 nM.

Take B8: the Relative cAMP EC50, nM (0.1% casein) came out at 0.133 nM and the cAMP Rel EC50, nM (1% HSA) is 12.7 nM.

B9 registered a Relative cAMP EC50, nM (0.1% casein) of 0.111 nM and a cAMP Rel EC50, nM (1% HSA) of 15.6 nM.

The next assay concerns the target human GLP-1R (SNAP-GLP-1R expressed in HEK293 cells) (human) (UniProt P43220). In words: cell-based or functional assay.
Take B1: the GLP1R Internalization EC50 worked out at 97.1 nM and the Internalization % TOP amounted to 38.6%.

As to B2, the GLP1R Internalization EC50 came out at 123 nM and the Internalization % TOP was determined as 52.8%.

B3: the GLP1R Internalization EC50 came out at 100 nM and the Internalization % TOP is 45.4%.

Turning to B4, the GLP1R Internalization EC50 was determined as 74.8 nM and the Internalization % TOP was found to be 38.7%.

Molecule B5 registered a GLP1R Internalization EC50 of 103 nM and an Internalization % TOP of 48%.

In turn, B6 gave a GLP1R Internalization EC50 of 75.9 nM and an Internalization % TOP of 44.7%.

Consider B7, for which the GLP1R Internalization EC50 was determined as 178 nM and the Internalization % TOP came to 49.4%.

For B8, the GLP1R Internalization EC50 turned out to be 116 nM and the Internalization % TOP worked out at 47.5%.

Consider B9, for which the GLP1R Internalization EC50 is 17.2 nM and the Internalization % TOP is 57%.

The next assay concerns the target human glucagon receptor (human) (UniProt P47871). In words: cell-based or functional assay.
As to B1, the Relative cAMP EC50, nM (0.1% casein) came out at 3.6 nM and the cAMP Rel EC50, nM (1% HSA) worked out at 745 nM.

In turn, B2 yielded a Relative cAMP EC50, nM (0.1% casein) of 4.24 nM and a cAMP Rel EC50, nM (1% HSA) of 307 nM.

Molecule B3 displayed a Relative cAMP EC50, nM (0.1% casein) of 3.83 nM and a cAMP Rel EC50, nM (1% HSA) of 504 nM.

As for B4, the Relative cAMP EC50, nM (0.1% casein) came to 5.54 nM and the cAMP Rel EC50, nM (1% HSA) is 1270 nM.

The molecule B5 yielded a Relative cAMP EC50, nM (0.1% casein) of 4.1 nM and a cAMP Rel EC50, nM (1% HSA) of 461 nM.

B6 registered a Relative cAMP EC50, nM (0.1% casein) of 5.05 nM and a cAMP Rel EC50, nM (1% HSA) of 938 nM.

Regarding B7, the Relative cAMP EC50, nM (0.1% casein) amounted to 11.7 nM and the cAMP Rel EC50, nM (1% HSA) was 439 nM.

B8 showed a Relative cAMP EC50, nM (0.1% casein) of 6.25 nM and a cAMP Rel EC50, nM (1% HSA) of 772 nM.

B9: the Relative cAMP EC50, nM (0.1% casein) amounted to 14.8 nM and the cAMP Rel EC50, nM (1% HSA) came to 2970 nM.
